Measured values as given in US20100104555A1 (Scripps Research, published 2010).

B1: maltose binding protein fused-large extracellular loop of CD81 (receptor)
chain: FVNKDQIAKDVKQFYDQALQQAVVDDDANNAKAVVKTFHETLDCCGSSTLTALTTSVLKNNLCPSGSNIISNLFKEDCHQKIDDLFSGK
notes: also called CD81-LEL; MBP-fused CD81-LEL
B2: MAb AR1A (antibody, V domains shown)
VH: LEQSGAEVKKPGSSVKVSCRASGSPYSSYTITWVRQAPGQGLEWMGGIILMTGKANYAQKFQGRVTITADRATATAYMEMSSLTSDDTAIYYCARDPYVYAGDDVRSLSRWGQGTPVIVSS
VL: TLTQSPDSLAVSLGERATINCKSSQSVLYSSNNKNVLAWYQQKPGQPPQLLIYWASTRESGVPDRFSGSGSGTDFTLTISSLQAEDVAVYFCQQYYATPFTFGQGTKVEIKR
notes: also called IgG1 AR1A
B3: E2ΔN5N9 (other)
chain: QLINTNGSWHINSTALNCNESLNTGWLAGLFYQHKFNSSGCPERLASCGSSGCWHYPPRPCGIVPAKSVCGPVYCFTPSPVVVGTTDRSGAPTYSWGANDTDVFVLNNTRPPLGNWFGCTWMNSTGFTKVCGAPPCGSSGCPTDCFRKHPEATYSRCGSGPWITPRCMVDYPYRLWHYPCTINYTIFKVRMYVGGVEHRLEAACNLEDYKDDDDK
B4: MAb AR1B (antibody, V domains shown)
VH: LESGGGLVQPGGSLRLSCEASGYYFSSFAMSWVRQTPGKGLEWVSSIAGGTLGRTSYRDSVKGRFTISRDNSKNTVFLHMNNLRPEDTAVYYCAKDPLLFAGGPNWFDHWGQGTLVTVSS
VL: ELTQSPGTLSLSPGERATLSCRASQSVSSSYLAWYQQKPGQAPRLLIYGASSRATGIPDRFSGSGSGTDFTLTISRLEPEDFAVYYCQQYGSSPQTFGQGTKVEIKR
notes: also called IgG1 AR1B
B5: E2ΔTM (other)
chain: ETHVTGGNAGRTTAGLVGLLTPGAKQNIQLINTNGSWHINSTALNCNESLNTGWLAGLFYQHKFNSSGCPERLASCRRLTDFAQGWGPISYANGSGLDERPYCWHYPPRPCGIVPAKSVCGPVYCFTPSPVVVGTTDRSGAPTYSWGANDTDVFVLNNTRPPLGNWFGCTWMNSTGFTKVCGAPPCVIGGVGNNTLLCPTDCFRKHPEATYSRCGSGPWITPRCMVDYPYRLWHYPCTINYTIFKVRMYVGGVEHRLEAACNWTRGERCDLEDRDRSELSPLLLSTTQWQVLPCSFTTLPALSTGLIHLHQNIVDVQYLYGVGSSIASWAIKWELEDYKDDDDK
B6: E2ΔN9 (other)
chain: QLINTNGSWHINSTALNCNESLNTGWLAGLFYQHKFNSSGCPERLASCRRLTDFAQGWGPISYANGSGLDERPYCWHYPPRPCGIVPAKSVCGPVYCFTPSPVVVGTTDRSGAPTYSWGANDTDVFVLNNTRPPLGNWFGCTWMNSTGFTKVCGAPPCGSSGCPTDCFRKHPEATYSRCGSGPWITPRCMVDYPYRLWHYPCTINYTIFKVRMYVGGVEHRLEAACNLEDYKDDDDK
B7: MAb AR3C (antibody, V domains shown)
VH: LEQSGAEVKKPGSSVKVSCETSGGTLDNYALNWVRQAPGQGLEWIGGVVPLFGTTRNAQKFQGRVTISDDKSTGTGHMELRSLRSEDTAVYYCVRSVTPRYCGGGFCYGEFDYWGQGTLVTVSS
VL: ELTQSPATLSVSPGERATLSCRASQSVSSNLAWYQQKPGQAPRLLIYGASTRATGIPARFSGSGSGTDFTLTVSRLEPEDSAVYFCQQYRSPLTFGGGTKVEIKR
notes: also called IgG1 AR3C
B8: E2412-645 (other)
chain: QLINTNGSWHINSTALNCNESLNTGWLAGLFYQHKFNSSGCPERLASCRRLTDFAQGWGPISYANGSGLDERPYCWHYPPRPCGIVPAKSVCGPVYCFTPSPVVVGTTDRSGAPTYSWGANDTDVFVLNNTRPPLGNWFGCTWMNSTGFTKVCGAPPCVIGGVGNNTLLCPTDCFRKHPEATYSRCGSGPWITPRCMVDYPYRLWHYPCTINYTIFKVRMYVGGVEHRLEAACNLEDYKDDDDK
B9: MAb AR2A (antibody, V domains shown)
VH: LEQSGAEMKKPGASLKVSCKTSGYTFDDYGVTWVRQAPGQGLEWMGWISAYSGNTFYARKFQGRVTMTTDPSTRTAYMELRSLRSDDTAVYFCARDRGLAINGVVFPYFGLDVWGQGTTVTVSS
VL: ELTQSPVSLPVTPGEPASISCRSSQSLLHSNGNHYLDWYLQKPGQSPQLLMYLGSNRASGVPDRFSGSGSGTDFTLKISRVEAEDVGVYYCMQGLQTPWTFGQGTKVEIKR
notes: also called IgG1 AR2A
B10: E2412-661 (other)
chain: QLINTNGSWHINSTALNCNESLNTGWLAGLFYQHKFNSSGCPERLASCRRLTDFAQGWGPISYANGSGLDERPYCWHYPPRPCGIVPAKSVCGPVYCFTPSPVVVGTTDRSGAPTYSWGANDTDVFVLNNTRPPLGNWFGCTWMNSTGFTKVCGAPPCVIGGVGNNTLLCPTDCFRKHPEATYSRCGSGPWITPRCMVDYPYRLWHYPCTINYTIFKVRMYVGGVEHRLEAACNWTRGERCDLEDRDRSELEDYKDDDDK
B11: E2492-645 (other)
chain: RPCGIVPAKSVCGPVYCFTPSPVVVGTTDRSGAPTYSWGANDTDVFVLNNTRPPLGNWFGCTWMNSTGFTKVCGAPPCVIGGVGNNTLLCPTDCFRKHPEATYSRCGSGPWITPRCMVDYPYRLWHYPCTINYTIFKVRMYVGGVEHRLEAACNLEDYKDDDDK
B12: E2ΔN5 (other)
chain: QLINTNGSWHINSTALNCNESLNTGWLAGLFYQHKFNSSGCPERLASCGSSGCWHYPPRPCGIVPAKSVCGPVYCFTPSPVVVGTTDRSGAPTYSWGANDTDVFVLNNTRPPLGNWFGCTWMNSTGFTKVCGAPPCVIGGVGNNTLLCPTDCFRKHPEATYSRCGSGPWITPRCMVDYPYRLWHYPCTINYTIFKVRMYVGGVEHRLEAACNLEDYKDDDDK
B13: E2456-645 (other)
chain: LASCRRLTDFAQGWGPISYANGSGLDERPYCWHYPPRPCGIVPAKSVCGPVYCFTPSPVVVGTTDRSGAPTYSWGANDTDVFVLNNTRPPLGNWFGCTWMNSTGFTKVCGAPPCVIGGVGNNTLLCPTDCFRKHPEATYSRCGSGPWITPRCMVDYPYRLWHYPCTINYTIFKVRMYVGGVEHRLEAACNLEDYKDDDDK
B14: E2412-611 (other)
chain: QLINTNGSWHINSTALNCNESLNTGWLAGLFYQHKFNSSGCPERLASCRRLTDFAQGWGPISYANGSGLDERPYCWHYPPRPCGIVPAKSVCGPVYCFTPSPVVVGTTDRSGAPTYSWGANDTDVFVLNNTRPPLGNWFGCTWMNSTGFTKVCGAPPCVIGGVGNNTLLCPTDCFRKHPEATYSRCGSGPWITPRCMVDYLEDYKDDDDK
B15: MAb AR3D (antibody, V domains shown)
VH: LEQSGAEVKKPGSSVKVSCKASGDTFRSYVITWARQAPGQGLEWMGAIIPFFGTTNLAQKFQGRVTITADESTKTVYMDLSSLRSDDTAVYYCAKAGDLSVGGVLAGGVPHLRHFDPWGQGTLVTVSS
VL: ELTQSPGTLSLSPGERATLSCRAGQTVASNSLAWYQHKPGQAPRLLIYGASIRASGIPDRFSGSGSGTDFTLTISRLEPEDFAVYYCQQYGLSPSTFGQGTRLEIKR
notes: also called IgG1 AR3D
B16: MAb AR3B (antibody, V domains shown)
VH: LEQSGPEVKKPGSSVKVSCKDSGDTFNEPVTWVRQAPGQGLEWIGGIIPAFGVTKYAQKFQGRVIISADASTATAYLELSSLRSEDTAVYYCAKVGLRGIVMVGGLAMNWLDPWGQGTQVTVSS
VL: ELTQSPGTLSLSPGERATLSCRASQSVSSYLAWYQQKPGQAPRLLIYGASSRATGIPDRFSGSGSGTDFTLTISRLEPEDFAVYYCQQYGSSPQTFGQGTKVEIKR
notes: also called IgG1 AR3B

Experiments:
E2412-574 [1] = target: T1, E2412-574 (hepatitis C virus isolate H77, UniProt P27958 412-574); assay: capture ELISA, coated CD81-LEL, 293T supernatant
E2412-589 [2] = target: T2, E2412-589 (hepatitis C virus isolate H77, UniProt P27958 412-588); assay: capture ELISA, coated CD81-LEL, 293T supernatant
E1E2 of HCV isolate H77 [3] = target: T3, E1E2 of HCV isolate H77 (hepatitis C virus genotype 1a, isolate …, UniProt P27958 192-383; P27958 384-746); assay: ELISA, mAb inhibits E1E2 (H77) binding to coated CD81-LEL
[4] = target: vaccinia-expressed E1E2 (isolate HCV-1) (hepatitis C virus genotype 1a, isolate …, UniProt P26664 192-383; P26664 384-746); assay: ELISA on lectin-captured E1E2; apparent affinity = half-maximal binding
E1E2 of HCV isolate H77 [5] = target: T3, E1E2 of HCV isolate H77; assay: as above
E1E2 of HCV isolate H77 [6] = target: T3, E1E2 of HCV isolate H77; assay: cell-based or functional assay
[7] = target: B1; assay: capture ELISA, coated CD81-LEL captures Flag-tagged E2 mutant
[8] = target: B1; assay: capture ELISA
E2412-574 [9] = target: T1, E2412-574; assay: capture ELISA, coated mAb, 293T supernatant
E2412-611 = target: B14; assay: capture ELISA, coated mAb, 293T supernatant
E2456-645 = target: B13; assay: capture ELISA, coated mAb, 293T supernatant
E2492-645 = target: B11; assay: capture ELISA, coated mAb, 293T supernatant
E2412-589 [10] = target: T2, E2412-589; assay: capture ELISA, coated mAb, 293T supernatant
[11] = target: B1; assay: capture ELISA, coated CD81-LEL, 293T supernatant

B1
binding result (E2412-574 [1]): no binding
binding result (E2412-589 [2]): no binding

B2
IC50 (E1E2 of HCV isolate H77 [3]): 5.7 nM
EC50 [4]: 2.6 nM
EC50 (E1E2 of HCV isolate H77 [5]): 3.8 nM
Neutralizing activity (IC50), HCVpp (E1E2 of HCV isolate H77 [6]): > 50 µg/mL

B3
binding result [7]: binds

B4
EC50 [4]: 0.4 nM
EC50 (E1E2 of HCV isolate H77 [5]): 0.6 nM
Neutralizing activity (IC50), HCVpp (E1E2 of HCV isolate H77 [6]): > 50 µg/mL

B5
binding result [8]: binds

B6
binding result [7]: binds

B7
IC50 (E1E2 of HCV isolate H77 [3]): 2 nM
binding result (E2412-574 [9]): no binding
binding result (E2412-611): no binding
binding result (E2456-645): no binding
binding result (E2492-645): no binding
binding result (E2412-589 [10]): no binding
EC50 [4]: 1.4 nM
EC50 (E1E2 of HCV isolate H77 [5]): 2.3 nM
Neutralizing activity (IC50), HCVpp (E1E2 of HCV isolate H77 [6]): 1 µg/mL

B8
binding result [8]: binds

B9
EC50 [4]: 3.1 nM
EC50 (E1E2 of HCV isolate H77 [5]): 1.6 nM
Neutralizing activity (IC50), HCVpp (E1E2 of HCV isolate H77 [6]): 1 µg/mL

B10
binding result [8]: binds

B11
binding result [11]: no binding

B12
binding result [7]: binds

B13
binding result [11]: no binding

B14
binding result [11]: no binding

B15
EC50 [4]: 2.4 nM

B16
EC50 [4]: 2 nM
